Measured values taken from the RNAGym collection of RNA variant scans (doi:10.1093/molbev/msab373).

B1: Azoarcus group I ribozyme (parent)
chain: GUGCCUUGCGCCGGGAAACCACGCAAGGGAUGGUGUCAAAUUCGGCGAAACCUAAGCGCCCGCCCGGGCGUAUGGCAACGCCGAGCCAAGCUUCGGCGCCUGCGCCGAUGAAGGUGUAGAGACUAGACGGCACCCACCUAAGGCAAACGCUAUGGUGAAGGCAUAGUCCAGGGAGUGGCGAAAGUCACACAAACCGG

Variants of: B1
Test: reverse-splicing fitness (ratio to wild type); higher = more active; in vitro selection; Mg2+ level not given
Outline: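 An in vitro group I ribozyme library with randomized positions was T7-transcribed and gel-purified. In triplicate, 10 pmol RNA in EPPS pH 7.5 was reacted with 50 pmoles of a 30-nt RNA substrate for 1 h at 37 °C across several added MgCl2 levels (1–48 mM), then stopped with EDTA. Products were reverse transcribed from a substrate-complementary primer, PCR-amplified and sequenced (HiSeq 4000). Fitness is a variant's read proportion after selection over that before, normalised to wild type.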

Variant | reverse-splicing fitness
GUGCCUUGCGCCGGGAAACCACGCAAGGGAUGGUGUCAAAUUCGGCGAAACCUAAGCGCCCGCCCGGGCGUAUGGCAACGCUGAGCCAAGCUUCGGCGCCUGCGCCGAUGUAGGUGUAGAGACUAGACGGCACCCACCUAAGGCCAACGCUAUGGUGAAGGCAUAGUCAAGGGAGUGGCGAAAGUCACACAAACCGG [C82U A111U A145C C169A] | 0.00671
GUGCCUUGCGCCGGGAAACCACGCAAGGGAUGGUGUCAAAUUCGGCGAAACCUAAGCGCCCGCCCGGGCGUAUGGCAACGCUGAGCCAAGCUUCGGCGCCUGCGCCGAUGUAGGUGUAGAGACUAGACGGCACCCACCUAAGGCCAACGCUAUGGUGAAGGCAUAGUCGAGGGAGUGGCGAAAGUCACACAAACCGG [C82U A111U A145C C169G] | 0.0091
GUGCCUUGCGCCGGGAAACCACGCAAGGGAUGGUGUCAAAUUCGGCGAAACCUAAGCGCCCGCCCGGGCGUAUGGCAACGCUGAGCCAAGCUUCGGCGCCUGCGCCGAUGUAGGUGUAGAGACUAGACGGCACCCACCUAAGGCCAACGCUAUGGUGAAGGCAUAGUCUAGGGAGUGGCGAAAGUCACACAAACCGG [C82U A111U A145C C169U] | 0.0102
GUGCCUUGCGCCGGGAAACCACGCAAGGGAUGGUGUCAAAUUCGGCGAAACCUAAGCGCCCGCCCGGGCGUAUGGCAACGCUGAGCCAAGCUUCGGCGCCUGCGCCGAUGUAGGUGUAGAGACUAGACGGCACCCACCUAAGGCCAACGCUAUGGUGAAGGCAUAGUCGAGGGAGAGGCGAAAGUCACACAAACCGG [C82U A111U A145C C169G U176A] | 0.0234
GUGCCUUGCGCCGGGAAACCACGCAAGGGAUGGUGUCAAAUUCGGCGAAACCUAAGCGCCCGCCCGGGCGUAUGGCAACGCUGAGCCAAGCUUCGGCGCCUGCGCCGAUGUAGGUGUAGAGACUAGACGGCACCCACCUAAGGCCAACGCUAUGGUGAAGGCAUAGUCGAGGGAGCGGCGAAAGUCACACAAACCGG [C82U A111U A145C C169G U176C] | 0.0126
GUGCCUUGCGCCGGGAAACCACGCAAGGGAUGGUGUCAAAUUCGGCGAAACCUAAGCGCCCGCCCGGGCGUAUGGCAACGCUGAGCCAAGCUUCGGCGCCUGCGCCGAUGUAGGUGUAGAGACUAGACGGCACCCACCUAAGGCCAACGCUAUGGUGAAGGCAUAGUCGAGGGAGGGGCGAAAGUCACACAAACCGG [C82U A111U A145C C169G U176G] | 0.00539
GUGCCUUGCGCCGGGAAACCACGCAAGGGAUGGUGUCAAAUUCGGCGAAACCUAAGCGCCCGCCCGGGCGUAUGGCAACGCUGAGCCAAGCUUCGGCGCCUGCGCCGAUGUAGGUGUAGAGACUAGACGGCACCCACCUAAGGCGAACGAUAUGGUGAAGGCAUAGUCUAGGGAGAGGCGAAAGUCACACAAACCGG [C82U A111U A145G C150A C169U U176A] | 0.016
GUGCCUUGCGCCGGGAAACCACGCAAGGGAUGGUGUCAAAUUCGGCGAAACCUAAGCGCCCGCCCGGGCGUAUGGCAACGCUGAGCCAAGCUUCGGCGCCUGCGCCGAUGUAGGUGUAGAGACUAGACGGCACCCACCUAAGGCGAACGAUAUGGUGAAGGCAUAGUCUAGGGAGCGGCGAAAGUCACACAAACCGG [C82U A111U A145G C150A C169U U176C] | 0.0133
GUGCCUUGCGCCGGGAAACCACGCAAGGGAUGGUGUCAAAUUCGGCGAAACCUAAGCGCCCGCCCGGGCGUAUGGCAACGCUGAGCCAAGCUUCGGCGCCUGCGCCGAUGUAGGUGUAGAGACUAGACGGCACCCACCUAAGGCGAACGAUAUGGUGAAGGCAUAGUCUAGGGAGGGGCGAAAGUCACACAAACCGG [C82U A111U A145G C150A C169U U176G] | 0.00658
GUGCCUUGCGCCGGGAAACCACGCAAGGGAUGGUGUCAAAUUCGGCGAAACCUAAGCGCCCGCCCGGGCGUAUGGCAACGCUGAGCCAAGCUUCGGCGCCUGCGCCGAUGUAGGUGUAGAGACUAGACGGCACCCACCUAAGGCCAACGCUAUGGUGAAGGCAUAGUCAAGGGAGGGGCGAAAGUCACACAAACCGG [C82U A111U A145C C169A U176G] | 0.00457
GUGCCUUGCGCCGGGAAACCACGCAAGGGAUGGUGUCAAAUUCGGCGAAACCUAAGCGCCCGCCCGGGCGUAUGGCAACGCUGAGCCAAGCUUCGGCGCCUGCGCCGAUGUAGGUGUAGAGACUAGACGGCACCCACCUAAGGCCAACGCUAUGGUGAAGGCAUAGUCAAGGGAGCGGCGAAAGUCACACAAACCGG [C82U A111U A145C C169A U176C] | 0.00614
GUGCCUUGCGCCGGGAAACCACGCAAGGGAUGGUGUCAAAUUCGGCGAAACCUAAGCGCCCGCCCGGGCGUAUGGCAACGCUGAGCCAAGCUUCGGCGCCUGCGCCGAUGUAGGUGUAGAGACUAGACGGCACCCACCUAAGGCCAACGCUAUGGUGAAGGCAUAGUCAAGGGAGAGGCGAAAGUCACACAAACCGG [C82U A111U A145C C169A U176A] | 0.00952
GUGCCUUGCGCCGGGAAACCACGCAAGGGAUGGUGUCAAAUUCGGCGAAACCUAAGCGCCCGCCCGGGCGUAUGGCAACGCUGAGCCAAGCUUCGGCGCCUGCGCCGAUGUAGGUGUAGAGACUAGACGGCACCCACCUAAGGCCAACGCUAUGGUGAAGGCAUAGUCCAGGGAGAGGCGAAAGUCACACAAACCGG [C82U A111U A145C U176A] | 0.0966
GUGCCUUGCGCCGGGAAACCACGCAAGGGAUGGUGUCAAAUUCGGCGAAACCUAAGCGCCCGCCCGGGCGUAUGGCAACGCUGAGCCAAGCUUCGGCGCCUGCGCCGAUGUAGGUGUAGAGACUAGACGGCACCCACCUAAGGCCAACGCUAUGGUGAAGGCAUAGUCCAGGGAGCGGCGAAAGUCACACAAACCGG [C82U A111U A145C U176C] | 0.141
GUGCCUUGCGCCGGGAAACCACGCAAGGGAUGGUGUCAAAUUCGGCGAAACCUAAGCGCCCGCCCGGGCGUAUGGCAACGCUGAGCCAAGCUUCGGCGCCUGCGCCGAUGUAGGUGUAGAGACUAGACGGCACCCACCUAAGGCCAACGCUAUGGUGAAGGCAUAGUCCAGGGAGGGGCGAAAGUCACACAAACCGG [C82U A111U A145C U176G] | 0.0247
